Earlier results as cited in publication PMC8199771.

Legend:
[1] = target: muscle nAChR alpha1-epsilon interface (Mus musculus) (UniProt P04756)
[2] = target: muscle nAChR alpha1-gamma and alpha1-delta interfaces (Mus musculus) (UniProt P04756)
[3] = target: muscle nAChR alpha-delta interface (Mus musculus) (UniProt P04756)
[4] = target: muscle nAChR (Homo sapiens) (UniProt P02708)
[5] = target: muscle nAChR alpha-epsilon interface (Mus musculus) (UniProt P04756)

Substance | Kd [1] [nM] | Kd [2] [nM] | Kd [3] [nM] | Kd [4] [nM] | Kd [5] [nM]
NmmI (from UniProt P01431) | 100 | 0.1 | – | – | –
Waglerin-1 (from UniProt P24335) | – | – | 20200 | 692 | 9.8
